Experimental findings from article PMC5566547, “Nei-like 1 (NEIL1) excises 5-carboxylcytosine directly and stimulates TDG-mediated 5-formyl and 5-carboxylcytosine excision” are described below.

The target in this data set is NEIL1 P2T (human, UniProt Q96FI4 1-390, P2T). Description: EMSA; EMSA: 25 mM Tris-HCl pH 7.5, 100 mM NaCl, 1 mM DTT, 10 nM DNA, 1-200 nM NEIL1 P2T, on ice 30 min; 6% native PAGE, 0.5x TBE, 4 C. Particulars: protein: recombinant; tags: C-terminal His6; label: 5'-32P top strand; blunt. Background: Mobility shift assays separate free from complexed probe on a gel.
NEIL1 P2T, sequence (Q96FI4 whole entry P2T): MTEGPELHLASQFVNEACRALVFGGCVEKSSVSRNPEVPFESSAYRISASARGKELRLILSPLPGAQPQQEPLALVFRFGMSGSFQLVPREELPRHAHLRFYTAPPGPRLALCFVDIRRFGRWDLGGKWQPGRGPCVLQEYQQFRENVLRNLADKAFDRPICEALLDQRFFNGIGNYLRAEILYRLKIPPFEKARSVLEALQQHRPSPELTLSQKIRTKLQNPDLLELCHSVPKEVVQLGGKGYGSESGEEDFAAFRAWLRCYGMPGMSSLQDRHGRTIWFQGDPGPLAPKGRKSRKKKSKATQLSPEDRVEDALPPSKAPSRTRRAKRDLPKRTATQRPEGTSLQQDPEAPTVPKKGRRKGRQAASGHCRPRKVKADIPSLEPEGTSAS

B1: 41-mer 5caC:G (dsDNA)
DNA 1: GCTACCTACCTAGCAGGGGCCAGCTGTCCCACTGCTCGGAA
DNA 2: TTCCGAGCAGTGGGACAGCTGGCCCCTGCTAGGTAGGTAGC
modifications: 5-carboxylcytosine at position 20 of top strand
With B1, the binding result was “binds”.

B2: 41-mer 5OHC:G (dsDNA)
DNA 1: GCTACCTACCTAGCAGGGGCCAGCTGTCCCACTGCTCGGAA
DNA 2: TTCCGAGCAGTGGGACAGCTGGCCCCTGCTAGGTAGGTAGC
modifications: 5-hydroxycytosine at position 20 of top strand
Take B2: the binding result was “binds”.
